Experimental data as given in US20210231678A1, “ALLERGY ANTIGEN AND EPITOPE THEREOF” (FUJITA ACADEMY, priority 2020, published 2021).

B1: Citrate-binding protein (protein, listed as Hevea brasiliensis)
chain: MKMKRSPYCFCCSFALLLLVSFLKDRHFCSADPTDGFTEVPLTEDNFVIQKPYDKPLNDRYSYKNGIRRLWVYENDKPFKVGSPTRPRTEIRIKGHDYSSGVWQFEGQVHVPEGTSGVTVMQVFGAVNKATALQLRVYNGDLKSYKSNSVATDIYNKWLRVNVIHKVGKGEITVFINGQQKLVVNDDGPAEHYFKCGVYAAPDGSSNYMESRWKNIKLYKSDNKLEGCNNNHGTWLVQ
B2: Hevamine-A (protein, listed as Hevea brasiliensis)
chain: MAKRTQAILLLLLAISLIMSSSHVDGGGIAIYWGQNGNEGTLTQTCSTRKYSYVNIAFLNKFGNGQTPQINLAGHCNPAAGGCTIVSNGIRSCQIQGIKVMLSLGGGIGSYTLASQADAKNVADYLWNNFLGGKSSSRPLGDAVLDGIDFDIEHGSTLYWDDLARYLSAYSKQGKKVYLTAAPQCPFPDRYLGTALNTGLFDYVWVQFYNNPPCQYSSGNINNIINSWNRWTTSINAGKIFLGLPAAPEAAGSGYVPPDVLISRILPEIKKSPKYGGVMLWSKFYDDKNGYSSSILDSVLFLHSEECMTVL

System: IgE antibody in the serum of a latex-allergic patient
Assay: Immunoblotting of two-dimensional electrophoresis gels of latex proteins with patient serum
Type: binding, human
Settings: immunoblot of 2D electrophoresis gel of latex proteins, compared with serum of non-latex-allergic subject
Protocol: Identification of antigens by immunoblotting was carried out by taking all the steps up to the step of “Second-dimensional SDS-PAGE” as described above in Example 1, followed by the steps of “Transfer to membrane”, “Immunoblotting” and “Analysis” as described below.
Transfer system: XCell SureLock Mini-Cell and XCell II Blot Module (produced by Life Technologies) Transfer buffer: NuPAGE Transfer Buffer (X20) (produced by Life Technologies), used in a form diluted 200-fold with milliQ water.
Immunoblotting of the membrane was carried out using, as a primary antibody, a serum sample from a patient with a latex allergy or a serum sample from a non-latex-allergic subject.
(1) The transferred membrane was shaken in a 5% skim milk/PBST solution (a PBS buffer containing 0.1% Tween 20 nonionic surfactant) at room temperature for one hour. […]
The immunoblots obtained with the serum from the latex-allergic patient were compared with those obtained with the control serum from the non-latex-allergic subject. For protein present in latex, in immunoblotting using the serum from the latex-allergic patient, 2 spots were detected, which are different from the spots detected when the serum of the non-latex-allergic subject was used and different from those of the known latex allergen proteins. […]

Molecule | specific binding to IgE antibodies from allergic patients
B1 | specifically bind to IgE antibodies from allergic patients
B2 | specifically bind to IgE antibodies from allergic patients
